Reference: US20160185857A1 (published 2016)
Blank lines part the entries; values can stand above or below the binder they belong to.

Target: T1, recombinant soluble human FcγRIIB (UniProt P31994 43-217)
T1 chain: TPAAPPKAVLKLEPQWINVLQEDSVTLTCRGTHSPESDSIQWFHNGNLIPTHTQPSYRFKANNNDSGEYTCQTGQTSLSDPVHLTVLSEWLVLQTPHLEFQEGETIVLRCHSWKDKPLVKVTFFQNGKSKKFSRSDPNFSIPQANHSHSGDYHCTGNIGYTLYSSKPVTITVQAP
Assay: SPR

koff: 0.00049 s⁻¹
B1: ch8A6_wt (antibody)
chain 1: EVQLVESGGDLVQPGRSLRLSCAASGFTFSDYYMAWVRQAPKKGLEWVASISSDGSNTYYGDSVKGRFTISRDNTRSNLYLQMNSLRSEDTATYYCARPGDYWGQGVMVTVSS
chain 2: NIVMTQSPTSMFISVGDRVTMNCKASQNVGTYVDWFQQKTGQSPTLLIFGASNRYTGVPDRFTGSGSGTDFTLSISNMQAEDLAVYYCLQYNYHPYTFGPGTTLELKR

koff: 0.01 s⁻¹
B2: chGB3_N297A (chimeric GB3, prior art antibody of WO 2005/051999, N297A format) (antibody, V domains shown)
VH: VQLQQSGPELVKPGASVKISCKASGYTFTDYYIYWVKQWPGQGLEWIGWIFPGTGNTYYNENFKDKATLTIDRSSSTAYMLLGSLTSEDSAVYFCYGPFAYWGQ
VL: RIQLTQSPSSLSASLGERVSLTCRASQEISGYLSWLQQKPDGTIKRLIYATSALDSGVPKRFSGSGSGSNYSLTISSLESEDFADYYCLQYANYPYTFGGGTKL
